Common to all, as to assay: fluorescence anisotropy; FA: 20 mM HEPES-NaOH pH 7.5, 100 mM NaCl, 10% glycerol, 20 C, 10 nM FAM-RNA; competition: 150 nM Egl512-819 + 10 nM FAM-K10 TLS, same buffer
Conditions in all cases: protein: recombinant; tags: N-terminal GST; label: 5'-6-FAM; hairpin with two bulges
Background: Polarisation of emitted light reports the rotation of a fluorescent probe.

One series concerns the target T1, L-Triple (Drosophila melanogaster, UniProt Q9W1K4 512-819, R753E;K754E;K755E).
T1 sequence: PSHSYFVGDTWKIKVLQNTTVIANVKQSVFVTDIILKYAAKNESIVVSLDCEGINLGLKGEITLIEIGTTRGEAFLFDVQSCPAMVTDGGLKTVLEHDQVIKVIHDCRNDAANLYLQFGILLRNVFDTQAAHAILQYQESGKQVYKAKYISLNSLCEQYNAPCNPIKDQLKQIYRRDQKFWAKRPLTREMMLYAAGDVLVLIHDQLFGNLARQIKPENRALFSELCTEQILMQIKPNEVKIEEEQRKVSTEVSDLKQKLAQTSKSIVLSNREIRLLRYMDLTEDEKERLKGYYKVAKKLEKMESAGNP

For another series, the target named is T2, K754A (Drosophila melanogaster, UniProt Q9W1K4 512-819, K754A).
T2 sequence: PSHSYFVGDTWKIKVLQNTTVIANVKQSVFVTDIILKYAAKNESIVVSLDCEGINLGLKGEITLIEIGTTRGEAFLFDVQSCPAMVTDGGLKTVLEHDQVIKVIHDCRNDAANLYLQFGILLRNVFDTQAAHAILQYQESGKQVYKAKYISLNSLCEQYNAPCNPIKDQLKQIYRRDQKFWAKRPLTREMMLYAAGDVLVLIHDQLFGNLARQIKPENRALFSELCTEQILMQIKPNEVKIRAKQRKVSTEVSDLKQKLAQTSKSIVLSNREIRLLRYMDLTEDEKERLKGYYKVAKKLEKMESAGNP

Another series has as its target T3, R782E (Drosophila melanogaster, UniProt Q9W1K4 512-819, R782E).
T3 sequence: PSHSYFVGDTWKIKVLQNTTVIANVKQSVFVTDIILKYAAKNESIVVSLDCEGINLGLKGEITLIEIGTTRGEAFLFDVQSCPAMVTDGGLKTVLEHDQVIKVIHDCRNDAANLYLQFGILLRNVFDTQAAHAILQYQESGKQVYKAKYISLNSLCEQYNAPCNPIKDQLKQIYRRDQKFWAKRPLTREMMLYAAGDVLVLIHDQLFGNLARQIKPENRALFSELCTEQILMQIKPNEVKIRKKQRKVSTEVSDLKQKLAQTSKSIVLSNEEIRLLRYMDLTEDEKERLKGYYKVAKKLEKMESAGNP

The next series addresses T4, L-EHD (Egl743-819) (Drosophila melanogaster, UniProt Q9W1K4 743-819).
T4 sequence: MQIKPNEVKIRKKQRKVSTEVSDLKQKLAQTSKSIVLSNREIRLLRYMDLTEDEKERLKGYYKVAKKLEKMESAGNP

The next series has as its target T5, R788E (Drosophila melanogaster, UniProt Q9W1K4 512-819, R788E).
T5 sequence: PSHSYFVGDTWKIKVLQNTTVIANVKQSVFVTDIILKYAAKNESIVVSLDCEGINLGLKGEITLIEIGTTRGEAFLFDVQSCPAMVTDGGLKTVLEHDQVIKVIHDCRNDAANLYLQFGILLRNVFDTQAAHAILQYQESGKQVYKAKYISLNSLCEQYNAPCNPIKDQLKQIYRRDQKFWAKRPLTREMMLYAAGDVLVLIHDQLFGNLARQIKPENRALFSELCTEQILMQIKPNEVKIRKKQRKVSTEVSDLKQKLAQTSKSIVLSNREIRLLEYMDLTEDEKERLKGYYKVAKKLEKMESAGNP

In the next series the target is T6, R753A/K754A/K755A (Drosophila melanogaster, UniProt Q9W1K4 512-819, R753A;K754A;K755A).
T6 sequence: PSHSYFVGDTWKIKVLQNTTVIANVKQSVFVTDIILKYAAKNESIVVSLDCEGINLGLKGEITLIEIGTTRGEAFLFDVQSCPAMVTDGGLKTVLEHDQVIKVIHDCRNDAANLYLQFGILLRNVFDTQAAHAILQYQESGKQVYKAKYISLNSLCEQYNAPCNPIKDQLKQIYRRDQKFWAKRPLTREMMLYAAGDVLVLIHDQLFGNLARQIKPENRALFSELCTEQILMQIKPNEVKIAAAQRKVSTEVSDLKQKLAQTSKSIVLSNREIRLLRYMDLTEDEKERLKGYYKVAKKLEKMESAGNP

The values below come from doi:10.1101/2025.08.03.668247, “The structure of Egalitarian in complex with the K10 mRNA localization signal reveals a modular binding surface required for function”.

B1: K10 TLS (FAM) (structured_RNA)
RNA: CUUGAUUGUAUUUUUAAAUUAAUUCUUAAAAACUACAAAUUAAG
The Kd is a measure of binding affinity in units of concentration. As for B1, the Kd was determined as 1460 ± 302 nM with L-Triple; 212 ± 8 nM with K754A; 235 ± 30 nM with R782E; 262 ± 9 nM in the series with L-EHD (Egl743-819); 313 ± 23 nM with R788E; 222 ± 19 nM in the series with R753A/K754A/K755A.
